The values below come from patent US20220259303A1 (ZHEJIANG DOER BIOLOGICS, published 2022).

Assay [1] has as its target T1, CLD18A2.
T1 construct: also called claudin 18 splice variant A2; CHO-S-CLD18A2
Put plainly: cell ELISA, purified VHH 2 µg/ml on CHO-S-CLD18A2. Here is the method: (§1) CHO-S, CHO-S-CLD18A1, and CHO-S-CLD18A2 are plated in 96-well plates at 5×10⁵ cells per well, and blocked with 3% BSA at room temperature for 1 h. The purified Anti-CLD18A2 VHH with HIS-tag is diluted to 2 μg/ml, add 100 μl to the blocked cells, and incubated for 1 h at room temperature. After washing, 100 μl/well of 1:5000 diluted mouse anti-his tag antibody (R&D Systems, Inc) was added and incubated at room temperature for 1 h. After washing, 100 μl/well of 1:10000 diluted HRP-Goat anti-mouse IgG antibody (Thermo Scientific) was added and incubated for 1 h at room temperature. After washing, TMB was added to develop color. The OD value is measured at 450 nm.

Assay [2] deals with T2, CLD18A1 (Homo sapiens (Human), UniProt P56856 1-261).
T2 construct: also called claudin 18 splice variant A1; CHO-S-CLD18A1
T2 sequence (P56856 whole entry, canonical isoform): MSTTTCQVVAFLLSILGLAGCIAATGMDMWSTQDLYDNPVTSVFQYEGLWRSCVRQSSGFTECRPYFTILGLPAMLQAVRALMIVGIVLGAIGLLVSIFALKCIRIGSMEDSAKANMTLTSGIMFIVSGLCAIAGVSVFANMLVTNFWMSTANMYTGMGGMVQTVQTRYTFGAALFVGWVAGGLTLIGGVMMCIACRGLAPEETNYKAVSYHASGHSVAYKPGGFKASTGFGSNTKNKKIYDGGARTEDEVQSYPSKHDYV
Nature of the assay: cell ELISA, purified HIS-tagged VHH on CHO-S-CLD18A1. As to the method:
as §1

Assay [3] concerns the target T1, CLD18A2. Nature of the assay: cell ELISA, his-tagged VHH titrated on CHO-S-CLD18A2. Here is the method:
(§2) CHO-S-CLD18A2 cells are plated in a 96-well plate at 5×10⁵ cells per well, and blocked with 3% BSA at room temperature for 1 h. The purified Anti-CLD18A2 VHH fused with histidine tag is diluted in gradients with 1% BSA, added to the blocked cells, and incubated for 1 h at room temperature. After washing, 100 μl/well of 1:5000 diluted mouse anti-his tag antibody (R&D Systems, Inc) was added and incubated at room temperature for 1 h. After washing, 100 μl/well of 1:10000 diluted HRP-Goat anti-mouse IgG antibody (Thermo Scientific) was added and incubated for 1 h at room temperature. After washing, TMB was added to develop color. The OD value is detected at 450 nm. The software GraphPad Prism v5.0 is used for data processing and mapping analysis, and the EC50 value of Anti-CLD18A2 VHH against CLD18A2 on cells is obtained to reflect the affinity of the VHH to CLD18A2.

In assay [4] the target is T2, CLD18A1. Nature of the assay: cell ELISA, E. coli expression supernatant on CHO-S-CLD18A1. Here is the method:
(§3) The clones selected according to the results of the 96-well plates of CHO-S, CHO-S-CLD18A1, and CHO-S-CLD18A2 cells are cultured. pcomb3XSS plasmids containing a single VHH sequence are extracted, and transformed into E. coli respectively to expression host Rosetta DE3. The respective expression clones are selected and cultured, then induced with 0.2 mM IPTG at 30° C. overnight to facilitate the periplasm-expressed proteins leakage into the culture medium supernatant. The culture medium supernatant of 16 clones are examined by ELISA again: adding 100 μl/well of 1:5000 diluted mouse anti his tag antibody (R&D Systems, Inc), incubating at room temperature for 1 h, washing, adding 100 μl/well of 1:10000 diluted HRP-Goat anti-mouse IgG antibody (Thermo Scientific), incubating for 1 h at room temperature, and adding TMB to develop color after washing. The negative control is a clone transfected with negative plasmid. The cell ELISA results are shown in Table 1, and the specific binding clones are further selected. These clones are sequenced respectively. Amino acid sequence alignment is performed. Clones with identical sequences are removed and finally 8 different clones are obtained.

Assay [5] has as its target T1, CLD18A2. Put plainly: cell ELISA, E. coli expression supernatant on CHO-S-CLD18A2. Here is the method: as §3
(In general: In an ELISA, binding on a coated surface is turned into a signal by an enzyme label.)

For assay [6], the target named is T1, CLD18A2. Nature of the assay: cell ELISA on CLD18A2-expressing cells, anti-human IgG Fc detection. Here is the method: The Anti-C18.2-Fc fusion proteins are diluted in gradients with 1% BSA, and the HRP-Goat anti-Human IgG Fc (Novex) secondary antibody is diluted 1:20000. The cell ELISA method is the same as that described in Embodiment 3.2. The software GraphPad Prism v5.0 is used for data processing and mapping analysis. The binding curve and EC50 value of Anti-C18.2-Fc against CLD18A2 in cells are obtained to reflect the affinity of the antibody to CLD18A2.
The affinities of Anti-C18.2-hu19V1-Fc and Anti-C18.2-hu19V3-Fc are similar to that of Anti-C18.2-19-Fc, which are better than that of the positive control ch-175D10.

In assay [7] the target is T1, CLD18A2. Put plainly: cell-based or functional assay.
Assay [8] addresses T1, CLD18A2. Put plainly: cell ELISA on CHO-S-CLD18A2, anti-his tag detection. As to the method: as §2
(§4) CHO-S-CLD18A2 and Jurkat cells are plated in 96-well plates at 5×10⁵/ml per well, and blocked with 3% BSA for 1 hat room temperature. The purified Anti-CLDN18×CD3 fusion protein, the Anti-C18.2-6 and Anti-C18.2-19 VHH prepared in Embodiment 4, and the anti-CD3 VHH are diluted in gradients with 1% BSA, and then added into the pre-blocked cells respectively, and then incubated at room temperature for 1 h. The following experimental process is the same as in Embodiment 4.3. […]

Assay [9] concerns the target T3, CD3 (human, UniProt P07766 23-207; P09693 23-182; P04234 22-171; P20963 22-164).
T3 construct: whole, on cells; also called CD3 positive cell Jurkat; cluster of differentiation 3
Put plainly: cell ELISA on CD3-positive Jurkat cells, anti-his tag detection. Here is the method: as §2, §4

Broadly, the EC50 is the concentration giving half of the maximal effect. Low readings indicate a more potent agent, high ones a less potent agent.

T3 sequence (P07766 23-207, chain 1 of 4): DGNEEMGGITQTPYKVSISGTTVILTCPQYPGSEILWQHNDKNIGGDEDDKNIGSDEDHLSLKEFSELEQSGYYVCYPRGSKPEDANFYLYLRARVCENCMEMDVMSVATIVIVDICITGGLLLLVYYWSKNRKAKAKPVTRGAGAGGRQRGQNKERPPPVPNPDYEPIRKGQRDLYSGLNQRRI
T3 sequence (P09693 23-182, chain 2 of 4): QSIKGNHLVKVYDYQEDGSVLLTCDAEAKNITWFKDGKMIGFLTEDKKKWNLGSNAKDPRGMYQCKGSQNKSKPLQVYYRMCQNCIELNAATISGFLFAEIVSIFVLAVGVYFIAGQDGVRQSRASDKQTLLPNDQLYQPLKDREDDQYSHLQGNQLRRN
T3 sequence (P04234 22-171, chain 3 of 4): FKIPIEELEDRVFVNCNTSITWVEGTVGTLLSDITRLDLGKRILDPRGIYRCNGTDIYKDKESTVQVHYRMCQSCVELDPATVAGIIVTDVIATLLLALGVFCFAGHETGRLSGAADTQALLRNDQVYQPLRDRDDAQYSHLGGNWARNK
T3 sequence (P20963 22-164, chain 4 of 4): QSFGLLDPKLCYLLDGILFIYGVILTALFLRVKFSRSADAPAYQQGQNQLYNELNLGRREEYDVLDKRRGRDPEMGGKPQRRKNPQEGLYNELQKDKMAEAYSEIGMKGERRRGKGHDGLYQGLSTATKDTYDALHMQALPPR

B1: Anti-C18.2-6 (VHH, not shown: small tags and cut ends)
VHH: QLQLVESGGGLVQPGGSLRLSCAASGGIFSIGVMGWYRQAPGKQRELVATITSRGSTNYADSVKGRFTISGDNAKNTVYLQMNNLKPEDTAVYYCYADLIRPGDFYGMDYWGKGTLVTVSS
notes: Treated as one molecule; also called C18-6
Regarding B1, the OD450 nm in assay [1] was 0.719 OD450 nm; in assay [4], 0.142 OD450 nm; in assay [5] it was 0.623 OD450 nm. The binding result in assay [2] is “no binding (tested: 2 µg/ml)”. In [3], this molecule came in with a concentration giving a half-maximal response (EC50) of 1.53 nM.

B2: Anti-C18.2-15 (VHH, not shown: small tags and cut ends)
VHH: QVQLVESGGGLVQPGGSLRLSCTASGSIFRIDGMHWYRQAPGKQRELVASITPSGITHYADSVKGRFTISRDIAKKMQYLQMNSLKPEDTAVYYCNAHLVKVGGVWSDEYWGQGTQVTVSS
notes: Treated as one molecule; also called C18-15
For the molecule B2, the results for the OD450 nm in assay [1], in assay [4] and in [5] were 0.671 OD450 nm, 0.189 OD450 nm and 0.685 OD450 nm, respectively. Also, in [2], the binding result was “no binding (tested: 2 µg/ml)”. The molecule further gave an EC50 in assay [3] of 2.89 nM.

B3: ch-175D10 (antibody, V domains shown)
VH: QVQLQQPGAELVRPGASVKLSCKASGYTFTSYWINWVKQRPGQGLEWIGNIYPSDSYTNYNQKFKDKATLTVDKSSSTAYMQLSSPTSEDSAVYYCTRSWRGNSFDYWGQGTTLTVSS
VL: DIVMTQSPSSLTVTAGEKVTMSCKSSQSLLNSGNQKNYLTWYQQKPGQPPKLLIYWASTRESGVPDRFTGSGSGTDFTLTISSVQAEDLAVYYCQNDYSYPFTFGSGTKLEIKR
B3 yielded an EC50 in assay [6] of 2.59 nM. That is a single-digit nanomolar value.

B4: Anti-C18.2-69 (VHH, not shown: small tags and cut ends)
VHH: QVQLVESGGGLVQPGGSLRLSCAASGSIFSIPVMTWYRQALGKEREFVAGISKGGTSNYADSVKGRFTVSRDNAKNTVYLQMNSLKSEDTAVYYCNAQASSFGWMPLSDYWGQGTQVTVSS
notes: Treated as one molecule; also called C18-69
Take B4: the OD450 nm is 0.573 OD450 nm in assay [1], 0.253 OD450 nm in assay [4] and 0.608 OD450 nm in assay [5]. For the same molecule, in assay [2], the binding result is “no binding (tested: 2 µg/ml)”. This molecule registered an EC50 in [3] of 2.23 nM.

B5: Anti-CLDN18×CD3-hu19V3 (bispecific antibody)
chain: QVQLVESGGGLVQPGGSLRLSCAASGVDISSDVMAWYRQAPGKGLEFVSGLTRGGSINYADSVKGRFTISRDNSKNTLYLQMNSLRAEDTAVYYCNAEIYTGTFYPRSYWGQGTLVTVSSGGGGSGGGGSGGGGSGGGGSGGGGSGGGGSGGGGSEVQLVESGGGPVQAGGSLRLSCAASGRTYRGYSMGWFRQAPGKEREFVAAIVWSGGNTYYEDSVKGRFTISRDNAKNTMYLQMTSLKPEDSATYYCAAKIRPYIFKIAGQYDYWGQGTQVTVSS
notes: Bispecific VHH; Expressed in Pichia pastoris; also called Anti-CLDN18×CD3 fusion protein
For the molecule B5, the “EC50 of killing of NUGC-4-CLD18A2 with T cells (LDH release, E:T 10:1)” value in assay [7] was found to be 0.0207 nM. Besides, the results for the EC50 in assay [8] and in assay [9] were 4.6 nM and 10.4 nM, respectively.

B6: Anti-CLDN18×CD3-hu6V3 (bispecific antibody)
chain: QVQLVESGGGLVQPGGSLRLSCAASGGIFSIGVMGWYRQAPGKGLELVATITSRGSTNYADSVKGRFTISRDNSKNTLYLQMNSLRAEDTAVYYCYADLIRPGDFYGMDYWGQGTLVTVSSGGGGSGGGGSGGGGSGGGGSGGGGSGGGGSGGGGSEVQLVESGGGPVQAGGSLRLSCAASGRTYRGYSMGWFRQAPGKEREFVAAIVWSGGNTYYEDSVKGRFTISRDNAKNTMYLQMTSLKPEDSATYYCAAKIRPYIFKIAGQYDYWGQGTQVTVSS
notes: as for B5
In the case of B6, in [7], the “EC50 of killing of NUGC-4-CLD18A2 with T cells (LDH release, E:T 10:1)” value was 0.0261 nM. Further, the 50% effective concentration (EC50) was found to be 6.5 nM in assay [8] and 9.39 nM in [9].

B7: Anti-C18.2-19 (VHH, not shown: small tags and cut ends)
VHH: QLQLVESGGGLVQPGGSLRLSCAASGVDISSDVMAWYRQAPGKQREFVSGLTRGGSINYADSVKGRFTISRDFAKNTVDLQMNSLKPEDTAVYYCNAEIYTGTFYPRSYWGQGTQVTVSS
notes: Treated as one molecule; also called C18-19
With B7, the OD450 nm was 0.668 OD450 nm in assay [1], 0.121 OD450 nm in assay [4] and 0.565 OD450 nm in [5]. For the same molecule, in assay [2], the binding result was “no binding (tested: 2 µg/ml)”. This molecule also displayed an EC50 in assay [3] of 1.25 nM.

B8: Anti-C18.2-7 (VHH, not shown: small tags and cut ends)
VHH: QVQLVESGGGLVQPGGSLRLSCAASGSIFLINAMGWYRQAPGKQRELVAVITRGGSANYTDSVKGRFTISRDNAKNTVYLQMNSLKPEDTAVYYCNADLNLRSDPFKWYTFWGQGTQVTVSS
notes: Treated as one molecule; also called C18-7
Consider B8, for which the figures for the OD450 nm in assay [1], in assay [4] and in assay [5] were 0.658 OD450 nm, 0.132 OD450 nm and 0.594 OD450 nm, respectively. Further, the binding result in [2] is “no binding (tested: 2 µg/ml)”. In assay [3], the concentration giving a half-maximal response (EC50) is 2.12 nM.

B9: Anti-C18.2-28 (VHH, not shown: small tags and cut ends)
VHH: QVQLVESGGGLVQPGGSLRLSCAASGSIFMINVMGWYRQAPGKQRELVAVITRGASTNYADSVKGRFTISRDNAKNTVYLQMNSLKPEDTAVYYCNADLNLASDPFKWYTYWGQGTQVTVSS
notes: Treated as one molecule; also called C18-28
As for B9, the OD450 nm is 0.598 OD450 nm in assay [1], 0.121 OD450 nm in assay [4] and 0.47 OD450 nm in [5]. In addition, the binding result in [2] is “no binding (tested: 2 µg/ml)”. Also, in assay [3], the concentration for a half-maximal effect (EC50) amounted to 2.54 nM.

B10: Anti-C18.2-32 (VHH, not shown: small tags and cut ends)
VHH: QLQLVESGGGLVQPGGSLRLSCAASGEISSDAMAWYRQAPGKQRELVAGMTRGGSTNYADSVKGRFTISRDFAKNTVDLQMNSLKPEDTAVYYCNAEIYTGTFYPRSYWGQGTQVTVSS
notes: Treated as one molecule; also called C18-32
In the case of B10, the figures for the OD450 nm in [1], in assay [4] and in assay [5] were 0.586 OD450 nm, 0.107 OD450 nm and 0.526 OD450 nm, respectively. In addition, the binding result in assay [2] is listed as “no binding (tested: 2 µg/ml)”. The same molecule showed an EC50 in assay [3] of 2.21 nM.

B11: Anti-C18.2-20 (VHH, not shown: small tags and cut ends)
VHH: QVQLVESGGGLVQPGGSLRLSCAASGSIFSINAMGWYRQAPGKQRELVAAITFGGGSTNYADSVKGRFTISRDNAKNTVYLQMNSLKPEDTAVYYCNADLLVGGFPRRNVYWGQGTQVTVSS
notes: Treated as one molecule; also called C18-20
On to B11, for which the results for the OD450 nm in assay [1], in assay [4] and in [5] were 0.621 OD450 nm, 0.128 OD450 nm and 0.528 OD450 nm, respectively. Besides, the binding result in [2] is on record as “no binding (tested: 2 µg/ml)”. In assay [3], this molecule registered a concentration for a half-maximal effect (EC50) of 1.87 nM.
